This note sets out measurements from publication PMC9198058.

Test [1] concerns the target Catalytically inactive recombinant S195A thrombin mutant (UniProt P00734). The test can be described thus: other fluorescence titration.
Test [2] addresses Nα-fluoresceinated hirugen ([F]-hirugen). The test can be described thus: other fluorescence titration.

In the case of Hirugen (54…*LQ65) (peptide), the increase of [F]-hirugen fluorescence on displacement in test [1] is 65%.
The Kd is a measure of binding affinity in units of concentration. A higher Kd goes with lower affinity. Take “Catalytically inactive recombinant S195A thrombin mutant (from UniProt P00734 44-622) (enzyme)”: in test [2], the Kd was determined as 30 nM.
